Test results reported in the supplement of paper PMC7125110.
± gives the standard error. This sample holds only a part of the variants without activity.

B1: glmS ribozyme (parent)
chain: AUAAAAGCGCCAGAACUACAGAAAUGUAGUUGACGAGGAGGAGGUUUAUCGAAUUUUCGGCGGAUGCCUCCAAA

Columns and labels:
Conditions in all cases: with glucosamine-6-phosphate
[1] = variants of: B1; assay: self-cleavage kobs at 40 uM GlcN6P; higher = faster cleavage; RNA array
In short: (§1)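 Tracking of barcoded ribozyme variants used a hybridised Cy3 probe at 37 °C, after in situ transcription by E. coli RNA polymerase on sequenced MiSeq chips. The flowed solution held 40 μM to 10 mM glucosamine-6-phosphate in HEPES/KCl/Mg(OAc)2 buffer, and imaging ran over ~14 h. kobs was taken from exponential decay fits of normalised per-tile medians, and kcat and KM from weighted Michaelis–Menten fits.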

[2] = variants of: B1; assay: self-cleavage kobs at 10000 uM GlcN6P; higher = faster cleavage; RNA array
In short: as §1

[3] = variants of: B1; assay: self-cleavage kobs at 160 uM GlcN6P; higher = faster cleavage; RNA array
In short: as §1

[4] = variants of: B1; assay: self-cleavage kobs at 640 uM GlcN6P; higher = faster cleavage; RNA array
In short: as §1

[5] = variants of: B1; assay: self-cleavage kobs at 2500 uM GlcN6P; higher = faster cleavage; RNA array
In short: as §1

Variant: A36C A53G
- self-cleavage kobs at 40 uM GlcN6P [1]: < 1e-05 s⁻¹
- self-cleavage kobs at 10000 uM GlcN6P [2]: < 1e-05 s⁻¹

Variant: G32U U65C
- self-cleavage kobs at 40 uM GlcN6P [1]: < 1e-05 s⁻¹
- self-cleavage kobs at 160 uM GlcN6P [3]: < 1e-05 s⁻¹
- self-cleavage kobs at 640 uM GlcN6P [4]: < 1e-05 s⁻¹
- self-cleavage kobs at 2500 uM GlcN6P [5]: < 1e-05 s⁻¹

Variant: U31A A52G C67G
- self-cleavage kobs at 40 uM GlcN6P [1]: 6.56e-05 ± 1.9e-05 s⁻¹
- self-cleavage kobs at 10000 uM GlcN6P [2]: 9.04e-05 ± 1.2e-05 s⁻¹

Variant: C8A G35C G66A C70G
- self-cleavage kobs at 40 uM GlcN6P [1]: < 1e-05 s⁻¹
- self-cleavage kobs at 10000 uM GlcN6P [2]: < 1e-05 s⁻¹

Variant: G51C C58U C68A
- self-cleavage kobs at 40 uM GlcN6P [1]: < 1e-05 s⁻¹

Variant: A12C U31C A39C U57G C67A
- self-cleavage kobs at 40 uM GlcN6P [1]: < 1e-05 s⁻¹
- self-cleavage kobs at 10000 uM GlcN6P [2]: < 1e-05 s⁻¹

Variant: G9A C50G
- self-cleavage kobs at 40 uM GlcN6P [1]: 0.000112 ± 1.8e-05 s⁻¹
- self-cleavage kobs at 160 uM GlcN6P [3]: 0.000137 ± 3.9e-05 s⁻¹
- self-cleavage kobs at 640 uM GlcN6P [4]: 0.00113 ± 0.00048 s⁻¹
- self-cleavage kobs at 10000 uM GlcN6P [2]: 9.95e-05 ± 1.1e-05 s⁻¹

Variant: G62U G63U
- self-cleavage kobs at 40 uM GlcN6P [1]: < 1e-05 s⁻¹
- self-cleavage kobs at 160 uM GlcN6P [3]: < 1e-05 s⁻¹
- self-cleavage kobs at 2500 uM GlcN6P [5]: < 1e-05 s⁻¹
- self-cleavage kobs at 10000 uM GlcN6P [2]: < 1e-05 s⁻¹

Variant: C50G U69A
- self-cleavage kobs at 40 uM GlcN6P [1]: 0.000132 ± 2.4e-05 s⁻¹
- self-cleavage kobs at 160 uM GlcN6P [3]: 0.000172 ± 2.9e-05 s⁻¹
- self-cleavage kobs at 640 uM GlcN6P [4]: 0.000587 ± 0.0001 s⁻¹
- self-cleavage kobs at 2500 uM GlcN6P [5]: 0.000186 ± 2.8e-05 s⁻¹
- self-cleavage kobs at 10000 uM GlcN6P [2]: 7.99e-05 ± 1.5e-05 s⁻¹

Variant: U54A G66A C67G
- self-cleavage kobs at 40 uM GlcN6P [1]: 5.57e-05 ± 1.5e-05 s⁻¹
- self-cleavage kobs at 2500 uM GlcN6P [5]: 0.000119 ± 4.7e-05 s⁻¹
- self-cleavage kobs at 10000 uM GlcN6P [2]: 0.000693 ± 0.00017 s⁻¹

Variant: A6G A14U G40C C67G
- self-cleavage kobs at 40 uM GlcN6P [1]: < 1e-05 s⁻¹
- self-cleavage kobs at 640 uM GlcN6P [4]: < 1e-05 s⁻¹

Variant: A42U G62C
- self-cleavage kobs at 40 uM GlcN6P [1]: < 1e-05 s⁻¹
- self-cleavage kobs at 640 uM GlcN6P [4]: < 1e-05 s⁻¹
- self-cleavage kobs at 10000 uM GlcN6P [2]: < 1e-05 s⁻¹

Variant: G13U C58A
- self-cleavage kobs at 40 uM GlcN6P [1]: 4.24e-05 ± 1.8e-05 s⁻¹
- self-cleavage kobs at 160 uM GlcN6P [3]: 7.4e-05 ± 1.6e-05 s⁻¹
- self-cleavage kobs at 640 uM GlcN6P [4]: 0.000326 ± 5.2e-05 s⁻¹
- self-cleavage kobs at 2500 uM GlcN6P [5]: 0.000524 ± 8.1e-05 s⁻¹
- self-cleavage kobs at 10000 uM GlcN6P [2]: 0.00176 ± 0.00026 s⁻¹

Variant: A36U C50G A64G C70G
- self-cleavage kobs at 40 uM GlcN6P [1]: 0.000457 ± 0.00012 s⁻¹
- self-cleavage kobs at 2500 uM GlcN6P [5]: 0.000298 ± 0.00013 s⁻¹
- self-cleavage kobs at 10000 uM GlcN6P [2]: 0.000194 ± 4.9e-05 s⁻¹

Variant: G13A G44A U65A
- self-cleavage kobs at 40 uM GlcN6P [1]: < 1e-05 s⁻¹

Variant: C10A U31G A48G C67G
- self-cleavage kobs at 40 uM GlcN6P [1]: < 1e-05 s⁻¹
- self-cleavage kobs at 10000 uM GlcN6P [2]: < 1e-05 s⁻¹

Variant: U45C U54G
- self-cleavage kobs at 40 uM GlcN6P [1]: 3.96e-05 ± 1.3e-05 s⁻¹
- self-cleavage kobs at 160 uM GlcN6P [3]: 0.000199 ± 3.9e-05 s⁻¹
- self-cleavage kobs at 640 uM GlcN6P [4]: 0.00067 ± 0.00015 s⁻¹
- self-cleavage kobs at 2500 uM GlcN6P [5]: 0.000454 ± 0.00018 s⁻¹
- self-cleavage kobs at 10000 uM GlcN6P [2]: 0.00305 ± 0.00064 s⁻¹

Variant: C8G A39U A53C C58U
- self-cleavage kobs at 40 uM GlcN6P [1]: < 1e-05 s⁻¹

Variant: G32C A36G
- self-cleavage kobs at 40 uM GlcN6P [1]: < 1e-05 s⁻¹
- self-cleavage kobs at 160 uM GlcN6P [3]: < 1e-05 s⁻¹
- self-cleavage kobs at 640 uM GlcN6P [4]: < 1e-05 s⁻¹
- self-cleavage kobs at 2500 uM GlcN6P [5]: < 1e-05 s⁻¹
- self-cleavage kobs at 10000 uM GlcN6P [2]: < 1e-05 s⁻¹

Variant: G44U U49C U57A
- self-cleavage kobs at 40 uM GlcN6P [1]: < 1e-05 s⁻¹
- self-cleavage kobs at 640 uM GlcN6P [4]: < 1e-05 s⁻¹

Variant: G59C C70U
- self-cleavage kobs at 40 uM GlcN6P [1]: < 1e-05 s⁻¹
- self-cleavage kobs at 640 uM GlcN6P [4]: < 1e-05 s⁻¹

Variant: C16G A48C C50A C58U A64U
- self-cleavage kobs at 40 uM GlcN6P [1]: < 1e-05 s⁻¹
- self-cleavage kobs at 10000 uM GlcN6P [2]: < 1e-05 s⁻¹

Variant: U30A G59U
- self-cleavage kobs at 40 uM GlcN6P [1]: < 1e-05 s⁻¹

Variant: C34G G37U A39C A53U
- self-cleavage kobs at 40 uM GlcN6P [1]: < 1e-05 s⁻¹

Variant: A6U G7U C58G U69G
- self-cleavage kobs at 40 uM GlcN6P [1]: 0.000141 ± 4.3e-05 s⁻¹
- self-cleavage kobs at 10000 uM GlcN6P [2]: 0.000123 ± 3.5e-05 s⁻¹

Variant: A33C G44C U45C
- self-cleavage kobs at 40 uM GlcN6P [1]: < 1e-05 s⁻¹
- self-cleavage kobs at 640 uM GlcN6P [4]: < 1e-05 s⁻¹
- self-cleavage kobs at 10000 uM GlcN6P [2]: < 1e-05 s⁻¹

Variant: C10A G62C
- self-cleavage kobs at 40 uM GlcN6P [1]: < 1e-05 s⁻¹
- self-cleavage kobs at 160 uM GlcN6P [3]: < 1e-05 s⁻¹
- self-cleavage kobs at 640 uM GlcN6P [4]: < 1e-05 s⁻¹

Variant: A52C A64U
- self-cleavage kobs at 40 uM GlcN6P [1]: < 1e-05 s⁻¹
- self-cleavage kobs at 160 uM GlcN6P [3]: < 1e-05 s⁻¹
- self-cleavage kobs at 640 uM GlcN6P [4]: < 1e-05 s⁻¹
- self-cleavage kobs at 2500 uM GlcN6P [5]: < 1e-05 s⁻¹
- self-cleavage kobs at 10000 uM GlcN6P [2]: < 1e-05 s⁻¹

Variant: G38A A52G
- self-cleavage kobs at 40 uM GlcN6P [1]: < 1e-05 s⁻¹
- self-cleavage kobs at 640 uM GlcN6P [4]: < 1e-05 s⁻¹
- self-cleavage kobs at 2500 uM GlcN6P [5]: < 1e-05 s⁻¹
- self-cleavage kobs at 10000 uM GlcN6P [2]: < 1e-05 s⁻¹

Variant: G7C C11A C50U U54C C58A C70A
- self-cleavage kobs at 40 uM GlcN6P [1]: 0.000371 ± 0.00013 s⁻¹

Variant: G9C G44A A52U
- self-cleavage kobs at 40 uM GlcN6P [1]: < 1e-05 s⁻¹

Variant: A6U G13U U47A
- self-cleavage kobs at 40 uM GlcN6P [1]: < 1e-05 s⁻¹

Variant: A33C A39G G41C A53C
- self-cleavage kobs at 40 uM GlcN6P [1]: < 1e-05 s⁻¹
- self-cleavage kobs at 160 uM GlcN6P [3]: < 1e-05 s⁻¹
- self-cleavage kobs at 640 uM GlcN6P [4]: < 1e-05 s⁻¹
- self-cleavage kobs at 2500 uM GlcN6P [5]: < 1e-05 s⁻¹
- self-cleavage kobs at 10000 uM GlcN6P [2]: < 1e-05 s⁻¹

Variant: G9C G13U G44C U45G
- self-cleavage kobs at 40 uM GlcN6P [1]: < 1e-05 s⁻¹
- self-cleavage kobs at 640 uM GlcN6P [4]: < 1e-05 s⁻¹
- self-cleavage kobs at 2500 uM GlcN6P [5]: < 1e-05 s⁻¹

Variant: U30G U49C A64C
- self-cleavage kobs at 40 uM GlcN6P [1]: < 1e-05 s⁻¹
- self-cleavage kobs at 160 uM GlcN6P [3]: < 1e-05 s⁻¹
- self-cleavage kobs at 10000 uM GlcN6P [2]: < 1e-05 s⁻¹

Variant: G29U G62C
- self-cleavage kobs at 40 uM GlcN6P [1]: < 1e-05 s⁻¹
- self-cleavage kobs at 640 uM GlcN6P [4]: < 1e-05 s⁻¹
- self-cleavage kobs at 2500 uM GlcN6P [5]: < 1e-05 s⁻¹
- self-cleavage kobs at 10000 uM GlcN6P [2]: < 1e-05 s⁻¹

Variant: A14U G32C U45A U47G
- self-cleavage kobs at 40 uM GlcN6P [1]: < 1e-05 s⁻¹
- self-cleavage kobs at 10000 uM GlcN6P [2]: 3.36e-05 ± 1.4e-05 s⁻¹

Variant: U45G G60U C67U C70A
- self-cleavage kobs at 40 uM GlcN6P [1]: < 1e-05 s⁻¹
- self-cleavage kobs at 640 uM GlcN6P [4]: < 1e-05 s⁻¹
- self-cleavage kobs at 10000 uM GlcN6P [2]: < 1e-05 s⁻¹

Variant: G51C C70A
- self-cleavage kobs at 40 uM GlcN6P [1]: < 1e-05 s⁻¹
- self-cleavage kobs at 640 uM GlcN6P [4]: < 1e-05 s⁻¹

Variant: C50G C67U C68U C71U
- self-cleavage kobs at 40 uM GlcN6P [1]: 0.000172 ± 4.1e-05 s⁻¹
- self-cleavage kobs at 640 uM GlcN6P [4]: 0.000393 ± 0.00011 s⁻¹
- self-cleavage kobs at 2500 uM GlcN6P [5]: 0.000127 ± 3e-05 s⁻¹
- self-cleavage kobs at 10000 uM GlcN6P [2]: 7.29e-05 ± 1.3e-05 s⁻¹

Variant: C8G G62A
- self-cleavage kobs at 40 uM GlcN6P [1]: < 1e-05 s⁻¹
- self-cleavage kobs at 2500 uM GlcN6P [5]: < 1e-05 s⁻¹

Variant: G13C G35U G41U G43A G60C
- self-cleavage kobs at 40 uM GlcN6P [1]: < 1e-05 s⁻¹

Variant: U30A A33U G41U A53C G60A C68G
- self-cleavage kobs at 40 uM GlcN6P [1]: < 1e-05 s⁻¹
- self-cleavage kobs at 160 uM GlcN6P [3]: < 1e-05 s⁻¹
- self-cleavage kobs at 640 uM GlcN6P [4]: < 1e-05 s⁻¹
- self-cleavage kobs at 10000 uM GlcN6P [2]: < 1e-05 s⁻¹

Variant: G35C U55C
- self-cleavage kobs at 40 uM GlcN6P [1]: < 1e-05 s⁻¹
- self-cleavage kobs at 160 uM GlcN6P [3]: < 1e-05 s⁻¹
- self-cleavage kobs at 2500 uM GlcN6P [5]: < 1e-05 s⁻¹
- self-cleavage kobs at 10000 uM GlcN6P [2]: < 1e-05 s⁻¹

Variant: G35C C68A
- self-cleavage kobs at 40 uM GlcN6P [1]: < 1e-05 s⁻¹
- self-cleavage kobs at 160 uM GlcN6P [3]: < 1e-05 s⁻¹
- self-cleavage kobs at 640 uM GlcN6P [4]: < 1e-05 s⁻¹
- self-cleavage kobs at 2500 uM GlcN6P [5]: < 1e-05 s⁻¹
- self-cleavage kobs at 10000 uM GlcN6P [2]: < 1e-05 s⁻¹

Variant: A14C A42C
- self-cleavage kobs at 40 uM GlcN6P [1]: < 1e-05 s⁻¹
- self-cleavage kobs at 640 uM GlcN6P [4]: < 1e-05 s⁻¹
- self-cleavage kobs at 2500 uM GlcN6P [5]: < 1e-05 s⁻¹
